Consider one molecule from patent US20160311912A1 (RINAT NEUROSCIENCE, published 2016).

Where only a bound is given, the exact number is not on record here.

Usually Kd stands for a measure of binding affinity in units of concentration. As usually defined, the koff is the rate constant with which the complex falls apart. For orientation: kon means the second-order rate constant of association.

The target in assay [1] is T1, Cynomolgus monkey (cyno) glucagon receptor extracellular domain human Fc fusion protein (cynomolgus monkey).
T1 construct: extracellular domain
Briefly: SPR (Biacore T200), receptor-Fc captured on anti-human Fc chip, mAb5 Fab as analyte, 25° C.; limit reported. The procedure: (§1) An anti-human Fc sensor chip was prepared by activating all flow cells of a Biacore CM4 sensor chip with a 1:1 (v/v) mixture of 400 mM EDC and 100 mM NHS for 7 minutes, at a flow rate of 10 μL/min. Goat anti-human Fc antibody (Southern Biotech) was diluted to 50 μg/mL in 10 mM sodium acetate pH 5.0 and injected on all flow cells for 7 minutes at 20 μL/min. All flow cells were blocked with 100 mM ethylenediamine in 150 mM borate buffer pH 8.5 for 7 minutes at 10 μL/min. The running buffer for this immobilization procedure was 10 mM HEPES, 150 mM NaCl, 0.05% (v/v) TWEEN® 20, pH 7.4.
(§2) The following kinetics experiments were performed at 25° C. and 37° C. using a running buffer of 10 mM HEPES, 150 mM NaCl, 0.05% (v/v) TWEEN® 20, pH 7.4, 1 mg/mL BSA.
(§3) All experiments were performed on a Biacore™ T200 surface Plasmon resonance biosensor (GE Lifesciences, Piscataway N.J.). Human and cynomolgus monkey (cyno) glucagon receptor extracellular domain human Fc fusion proteins were captured onto downstream flow cells (flow cells 2, 3, respectively) at 2 μg/mL at a flow rate of 10 μL/min for 3 minutes. […] After the analyte injection, dissociation was monitored for 10 minutes (for the 20 nM and 100 nM mAb5 Fab analyte samples) or 30 seconds (for the 0.16, 0.8, and 4 nM mAb5 Fab analyte samples). Dissociation was monitored for 30 seconds and 10 minutes for buffer analyte cycles. […]
(In general: In SPR one partner is held on a chip, and binding of the other changes the refractive index at the surface.)

In assay [2] the target is T1, Cynomolgus monkey (cyno) glucagon …. Briefly: SPR (Biacore T200), receptor-Fc captured on anti-human Fc chip, mAb5 Fab as analyte, 37° C. How it is done:
as §1, §2
(§4) All experiments were performed on a Biacore™ T200 surface Plasmon resonance biosensor (GE Lifesciences, Piscataway N.J.). Human and cynomolgus monkey (cyno) glucagon receptor extracellular domain human Fc fusion proteins were captured onto downstream flow cells (flow cells 2, 3, respectively) at 2 μg/mL at a flow rate of 10 μL/min for 3 minutes. Flow cell 1 was used as a blank reference surface. Following capture of glucagon receptor Fc fusion proteins, analyte (buffer, or mAb5 Fab) was injected at 30 μL/min on all flow cells for two minutes. Multiple mAb5 Fab analyte concentrations were tested. The mAb5 Fab analyte concentrations were 0.16, 0.8, 4, 20 and 100 nM. After the analyte injection, dissociation was monitored for 10 minutes (for the 20 nM and 100 nM mAb5 Fab analyte samples) or 30 seconds (for the 0.16, 0.8, and 4 nM mAb5 Fab analyte samples). Dissociation was monitored for 30 seconds and 10 minutes for buffer analyte cycles. Following analyte binding and dissociation all flow cells were regenerated with four 1-minute injections of 75 mM phosphoric acid. The sensorgram data were double referenced prior to curve fitting (double referencing as described in Myszka, D. G., 1999, J. Mol. Recognit., 12:279-284. The double referenced sensorgrams were fit globally to a simple 1:1 Langmuir with mass transport binding model using the Biacore™ T200 evaluation software. The binding affinity data for anti-glucagon receptor antagonist antibody mAb5 binding to human and cyno glucagon receptor are shown below in Table 4.

Assay [3] has as its target T2, Human glucagon receptor extracellular domain human Fc fusion protein (human, UniProt P47871 26-136, limits assumed).
T2 construct: also called glucagon receptor Fc fusion protein; not shown: human Fc
Described as above. The procedure:
as §1, §2, §4

Assay [4] concerns the target T1, Cynomolgus monkey (cyno) glucagon …. Briefly: SPR (Biacore T200), receptor-Fc captured on anti-human Fc chip, mAb5 Fab as analyte, 25° C.; dissociation too slow, limit reported. The procedure:
as §1, §2, §3

For assay [5] the target is unchanged. Kind of assay: SPR (Biacore T200), receptor-Fc captured on anti-human Fc chip, mAb5 Fab as analyte, 25° C. How it is done:
as §1, §2, §4

The target in assay [6] is T2, Human glucagon receptor extracellular …. The assay is described as above. The procedure:
as §1, §2, §4

T2 sequence (P47871 26-136 limits assumed): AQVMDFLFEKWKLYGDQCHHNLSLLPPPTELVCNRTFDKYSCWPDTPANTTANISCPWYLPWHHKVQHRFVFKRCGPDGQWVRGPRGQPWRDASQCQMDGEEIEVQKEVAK

B1: mAb5 Fab (Fab, V domains shown)
VH: QVQLVQSGAEVKKPGASVKVSCKASGYTFTDFSVHWVRQAPGQGLEWMGWINTETDETSYADDFKGRVTMTRDTSTSTVYMELSSLRSEDTAVYYCVKSRYWSYGPPDYWGQGTTVTVSS
VL: DIQMTQSPSSLSASVGDRVTITCQASQNIRTAVVWYQQKPGKAPKLLIYLASNRHSGVPSRFSGSGSGTDFTFTISSLQPEDIATYYCLQHWTYPFTFGGGTKVEIK
notes: also called Fab of anti-glucagon receptor antagonist antibody mAb5
As for B1, the Kd in assay [1] was less than 170 pM; in assay [2] it was 720 pM; in assay [3], 750 pM; in assay [6], 220 pM. Further, the t1/2 was more than 136 min in assay [1], 21 min in assay [2], 24 min in assay [3] and 116 min in assay [6]. The koff was 0.00054 s⁻¹ in assay [2], 0.00049 s⁻¹ in assay [3], less than 8.5e-05 s⁻¹ in assay [4] and 0.0001 s⁻¹ in assay [6]. Also, the kon worked out at 750000 M⁻¹ s⁻¹ in assay [2], 650000 M⁻¹ s⁻¹ in assay [3], 500000 M⁻¹ s⁻¹ in assay [5] and 460000 M⁻¹ s⁻¹ in assay [6].
